# Experimental data: PMC5615036, “Crystal structure of an ASCH protein from Zymomonas mobilis and its ribonuclease activity specific for single-stranded RNA”
# T1: ZmASCH wild-type (Zymomonas mobilis ZM4, UniProt Q5NP14 1-148)
# T1 sequence: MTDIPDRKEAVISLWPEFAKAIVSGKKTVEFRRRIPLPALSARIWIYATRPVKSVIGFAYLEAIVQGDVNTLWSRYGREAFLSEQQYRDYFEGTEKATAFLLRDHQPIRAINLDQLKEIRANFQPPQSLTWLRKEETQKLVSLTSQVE
# B1: ssDNA(30mer) (ssDNA)
# DNA: ATCAGCTCGTCACAACATTACTTCATCAAC
# Biological target: T1, ZmASCH wild-type
# Assay: EMSA; 10 mM Mg2+; bound, not degraded; EMSA: 20 mM Tris-HCl pH 7.5, 10 mM Mg acetate, 300 mM KCl, 100 ng/uL BSA, 100 ng/uL heparin, 30 min at 310 K; nuclease assay: 20 mM Tris-HCl pH 8.0, 100 mM KCl, 100 ng/uL BSA, with or without 10 mM divalent metal, 310 K
# Conditions: protein: recombinant; tags: N-terminal His6; label: 5'-32P; single strand
binder,measurement,value
B1,binding result,binds
